Data reported in patent US7625566.

How the values were obtained:
[1] = target: human anti-HIV-1 (gp120 recognizing) antibody 2G12; test: cell-based or functional assay
[2] = target: human monoclonal anti-HIV-1 antibody 2F5 (isotype not stated in the assay); test: cell-based or functional assay
[3] = target: human monoclonal anti-HIV-1 antibody 2F5 (isotype not stated in the assay); test: competition ELISA: 50 ng/mL 3H6 preincubated with 31 ng/mL 2F5, then 2F5 binding to coated …
[4] = target: human monoclonal anti-HIV-1 antibody 2F5 (isotype not stated in the assay); test: competition ELISA: 500 ng/mL 3H6 preincubated with 31 ng/mL 2F5, then 2F5 binding to coated …

B1: murine monoclonal anti-idiotypic antibody (Ab2) 3H6 (antibody, V domains shown)
VH: GVQLQQSGPELVKTGASVKISCKASGYSFTDYFMHWVKQSHGKSLDWIGYINCYTGATNYSQKFKGKATFTVDTSSNTAYMQFNSLTSEDSAVYYCARTSIGYGSSPPFPYWGQGTLVTVSA
VL: ETTVTQSPASLSMSIGEKVTIRCITSTDIDDDMNWYQQKPGEPPRLLISDGNTLRPGVPSRFSSSGYGTDFVFTIENMLSEDVADYYCLQSDNLPYTFGGGTNLEIK
reduction of 2G12 (10 µg/mL) neutralization of HIV-1 NL4-3 [1]: > 250 µg/mL
depletion of 2F5 (10 µg/mL) neutralization of HIV-1 NL4-3 on AA-2 cells, p24 ELISA [2]: 3.9 µg/mL
reduction of 2F5 (10 µg/mL) neutralization at 3.9 µg/mL 3H6 [2]: 95%
reduction of the neutralizing capacity of 2F5 (10 µg/mL) at 1.9 µg/mL 3H6 [2]: 5%
reduction of the OD [3]: 37%
reduction of OD [4]: 83%
